One may read the Kd as a measure of binding affinity in units of concentration. A low value points to a tighter complex. The stoichiometry N is the number of molecules, sites or subunits per partner or assembly.

The record followed here is PMC5084153, “Structural studies on MRG701 chromodomain reveal a novel dimerization interface of MRG proteins in green plants” (Protein & Cell, 2016).

B3: MRG1 chromodomain (MRG1^CD, residues 28-110) (domain or fragment, Arabidopsis thaliana, UniProt Q94C32 28-110, looked up)
chain: LFSEGERVLAYHGPRVYGAKVQKVELRKKEWKYFVHYLGWNKNWDEWVSADRLLKHTEENLVKQKALDKKQGVEKGTKSGRSA
notes: MRG1 of Arabidopsis thaliana, chromodomain, residues 28-110; Homodimer by SEC-MALS; also called wild-type MRG1^CD; source: E. coli BL21 (DE3), purified (Ni HiTrap, tag removed by ULP enzyme, Superdex G75)

The target in series [1] is T1, MRG1^CDW58A (Arabidopsis thaliana, UniProt Q94C32, W58A).
T1 construct: Arabidopsis thaliana MRG1 (residues 28–110); His-SMT3 (SUMO) from modified pET28-SMT3 (N, cleaved yes); made in house; host or cells: Escherichia coli BL21 (DE3)
The class given is binding. As for the experimental part: The cDNA encoding the chromodomain of Arabidopsis thaliana MRG1 (residues 28–110) and Oryza sativa MRG701 (residues 27–96) were amplified by PCR and cloned into the modified pET28-SMT3 vector. Point mutants were generated by Site-Directed Mutagenesis kit (NEB) according to the manufacturer’s instructions. The plasmid was transformed into Escherichia coli strain BL21 (DE3). The cells were cultured in LB medium with 50 μg/mL kanamycin and induced by final concentration of 0.2 mmol/L isopropyl-β-d-thiogalactopyranoside (IPTG) at 18°C for 18 h. Cells were harvested and re-suspended in 20 mmol/L Tris pH 8.0, 500 mmol/L NaCl, 25 mmol/L imidazole and then broken by cell disruptor (JNBIO). The fusion protein was purified first with Ni HiTrap column (GE healthcare) and then removed the tag by ULP enzyme. The target protein was further purified with Superdex G75 Hiload 26/60 column (GE healthcare) and then concentrated to 20 mg/mL for structural and biochemical studies.
ITC experiments were carried out at 20°C on a MicroCal iTC200. Protein and peptide were kept in an identical buffer of 20 mmol/L Tris pH 8.0, 100 mmol/L NaCl. The sample cell was filled with a 0.1–0.2-mmol/L solution of protein, and the injection syringe with 1–2 mmol/L of the titrating ligand. […] Binding isotherms were analyzed by fitting data into the one-site model using the ITC data analysis module Origin 7.0 software.

Series [2] has as its target T2, MRG2^CDE75A (Arabidopsis thaliana, UniProt Q4V3E2, E75A).
T2 construct: the Arabidopsis MRG2 chromodomain (MRG2^CD)
The series is classed as binding. As for the experimental part: ITC experiments were carried out at 20°C on a MicroCal iTC200. Protein and peptide were kept in an identical buffer of 20 mmol/L Tris pH 8.0, 100 mmol/L NaCl. The sample cell was filled with a 0.1–0.2-mmol/L solution of protein, and the injection syringe with 1–2 mmol/L of the titrating ligand. Each titration consisted of 20 2-μL injections with 2 min interval. Binding isotherms were analyzed by fitting data into the one-site model using the ITC data analysis module Origin 7.0 software.

The target of series [3] is MRG701 chromodomain mutant W56A (MRG701^CDW56A) (Oryza sativa). Description: ITC; MicroCal iTC200, 20°C, 20 mmol/L Tris pH 8.0, 100 mmol/L NaCl; protein 0.1-0.2 mmol/L in the cell, peptide 1-2 mmol/L in the syringe; one-site model. Background: ITC needs no label: the signal is the heat of the interaction.
Series [4] concerns the target MRG701 chromodomain (MRG701^CD, residues 27-96) (Oryza sativa). The series is described as above.
Series [5] shares this target. Description: SEC-MALS; Wyatt 015S5 (150 Å) column, 0.5 mL/min, 10 mmol/L Tris 8.0, 100 mmol/L NaCl; self-association of the chromodomain.
Series [6] concerns the molecule itself. Described as above.
Series [7] in a line: SEC-MALS analysis of oligomerization status in solution. The class given is physicochemical. The following applies: for oligomerization in crystal and in solution (in words): SEC-MALS and crystal structure; for Observed molar mass by SEC-MALS: Wyatt 015S5 (150 Å) column, 0.5 mL/min, 10 mmol/L Tris 8.0, 100 mmol/L NaCl, multi-angle light scattering and differential refractive index. As for the experimental part:
The absolute molar mass of target protein was determined by size exclusion chromatography coupled with multi-angel light scattering. The experiments were performed by an Agilent system connected with a Wyatt DAWN HELEOS-II multi-angle light scattering instrument and a Wyatt OptilabrEX differential refractometer. A Wyatt 015S5 (150 Å) column was used with a 100 μL sample loop at a flow rate of 0.5 mL/min in the running buffer of 10 mmol/L Tris 8.0, 100 mmol/L NaCl. The molar mass was calculated by light scattering intensity and differential refractive index using Wyatt ASTRA 6 software (Wyatt, [1993]).
On the technique in general: In gel filtration, larger molecules generally elute earlier.

Series [8] addresses T3, MRG1 chromodomain (MRG1^CD, residues 28-110) (Arabidopsis thaliana, UniProt Q94C32 28-110).
T3 chain: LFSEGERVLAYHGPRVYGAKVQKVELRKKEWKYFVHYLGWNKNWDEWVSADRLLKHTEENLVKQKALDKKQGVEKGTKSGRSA
Description: ITC.

The target in series [9] is B3. The series can be described thus: ITC; MicroCal iTC200, 20°C, 20 mmol/L Tris pH 8.0, 100 mmol/L NaCl; protein 0.1-0.2 mmol/L in the cell, peptide 1-2 mmol/L in the syringe; one-site model. The following applies: both partners purified.
Series [10] has as its target T4, MRG1 chromodomain mutant W58A (MRG1^CDW58A) (Arabidopsis thaliana, UniProt Q94C32 28-110, W58A).
T4 construct: MRG1 of Arabidopsis thaliana, chromodomain, residues 28-110, point mutant W58A; source: E. coli BL21 (DE3), purified (Ni HiTrap, tag removed by ULP enzyme, Superdex G75)
T4 sequence (looked up): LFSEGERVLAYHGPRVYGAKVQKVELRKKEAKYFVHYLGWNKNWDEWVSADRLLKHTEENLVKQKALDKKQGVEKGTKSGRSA
The series is described as above. The following applies: both partners purified.

Series [11] addresses T5, MRG2 chromodomain (MRG2^CD) (Arabidopsis, UniProt Q4V3E2 51-123).
T5 chain: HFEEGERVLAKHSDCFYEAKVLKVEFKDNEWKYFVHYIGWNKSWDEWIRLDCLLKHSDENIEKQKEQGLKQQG
The series can be described thus: ITC.

Series [12] has as its target T6, MRG2 chromodomain mutant E75A (MRG2^CDE75A) (Arabidopsis, UniProt Q4V3E2 51-123, E75A).
T6 sequence: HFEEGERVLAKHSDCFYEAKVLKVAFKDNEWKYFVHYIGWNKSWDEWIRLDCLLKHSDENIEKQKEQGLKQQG
Description: ITC.

In series [13] the target is T7, MRG1 chromodomain mutant W58A (MRG1^CDW58A) (Arabidopsis thaliana, UniProt Q94C32 28-110, W58A).
T7 sequence: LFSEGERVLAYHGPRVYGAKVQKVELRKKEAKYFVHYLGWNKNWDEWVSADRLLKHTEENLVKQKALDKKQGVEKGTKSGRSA
Description: ITC.

Where “and” joins values, the source holds several entries; their conditions need not be identical. Equal values may be shown once. Primed or numbered codes have the meaning given here. No end group written: not given here. Me3″ = trimethyl (trimethyl-lysine)

Take `C[C@H](N)C(=O)N[C@@H](CCCNC(=N)N)C(=O)N[C@H](C(=O)N[C@@H](CCCC[N+](C)(C)C)C(=O)N[C@@H](CCC(N)=O)C(=O)N[C@H](C(=O)N[C@@H](C)C(=O)N[C@@H](CCCNC(=N)N)C(=O)N[C@@H](CCCCN)C(=O)O)[C@@H](C)O)[C@@H](C)O` [H3K4me3]: the “difference of Kd between wild-type and mutant proteins (in words)” value in series [1] and in [2] was “only mild differences” throughout.

For “histone H3K36me3 peptide (residues 31-41) (from UniProt P68431 32-42)”, the figures for the Kd in [3] and in series [4] were 260 µM and 510 µM, respectively.

In series [5], “MRG701 chromodomain (MRG701^CD, residues 27-96) (domain or fragment)” showed a stoichiometry N of 2.

B1: MRG2 chromodomain (MRG2^CD) (domain or fragment, Arabidopsis)
chain: HFEEGERVLAKHSDCFYEAKVLKVEFKDNEWKYFVHYIGWNKSWDEWIRLDCLLKHSDENIEKQKEQGLKQQG
notes: MRG2 of Arabidopsis, chromodomain; Homodimer by SEC-MALS; also called wild-type MRG2^CD; source: purified
Consider B1, for which the “stoichiometry N” value in [6] worked out at 2. Also, in series [7], the “oligomerization in crystal and in solution (in words)” value was “form dimers both in crystal and in solution”; the “Observed molar mass by SEC-MALS” value was 20.7 kDa and 20.74 ± 3.05 kDa.

B2: MRG2^CDE75A: point mutant of MRG2 chromodomain disrupting hydrogen bonding and electrostatic interactions (protein)
chain: HFEEGERVLAKHSDCFYEAKVLKVAFKDNEWKYFVHYIGWNKSWDEWIRLDCLLKHSDENIEKQKEQGLKQQG
Regarding B2, in series [7], the “Observed molar mass by SEC-MALS” value is 12.5 kDa and 12.47 ± 0.92 kDa.

As for B3, in series [6], the “stoichiometry N” value turned out to be 2.

B4: MRG1^CD: MRG1 chromodomain (residues 28–110), Arabidopsis thaliana (protein)
chain: LFSEGERVLAYHGPRVYGAKVQKVELRKKEWKYFVHYLGWNKNWDEWVSADRLLKHTEENLVKQKALDKKQGVEKGTKSGRSA
modifications: left off: SMT3 (from the modified vector pET28-SMT3), end not stated, cleaved
notes: MRG1 chromodomain (residues 28–110), Arabidopsis thaliana
As to B4, in [7], the “oligomerization in crystal and in solution (in words)” value was “form dimers both in crystal and in solution”; the “Observed molar mass by SEC-MALS” value is 20.7 kDa and 20.67 ± 2.99 kDa.

B5: MRG1^CDW58A: point mutant of MRG1 chromodomain disrupting π-π stacking (protein)
chain: LFSEGERVLAYHGPRVYGAKVQKVELRKKEAKYFVHYLGWNKNWDEWVSADRLLKHTEENLVKQKALDKKQGVEKGTKSGRSA
modifications: left off: SMT3 (from the modified vector pET28-SMT3), end not stated, cleaved
notes: point mutant of MRG1 chromodomain disrupting π-π stacking
Consider B5, for which the “Observed molar mass by SEC-MALS” value in series [7] is 13.4 kDa and 13.36 ± 1.40 kDa.

B6: histone H3K4me3 peptide (residues 1-9) (peptide, UniProt P68431 2-10, looked up)
peptide: ARTK(Me3″)QTARK
notes: histone H3, residues 1-9, trimethylated at lysine 4
As for B6, the equilibrium dissociation constant (Kd) in series [3] stood at 250 µM; in [4] it was 330 µM; in [8] it was 650 µM; in [11] it was 520 µM; in [12], 450 µM; in [13], 910 µM. In addition, the binding result in series [9] and in series [10] was “binds” in each case.
